Three substances from patent publication US20250345451A1 can be followed below.

Experiment [1] deals with Human TGF-β1 (acrobiosystems, TG1-H421) (human) (UniProt P01137).
Experiment [2] shares this target. Kind of experiment: ELISA on coated human TGF-β1, anti-human Fc-HRP, absorbance at 450 nm (top panel). (In an ELISA, binding on a coated surface is turned into a signal by an enzyme label.)
Experiment [3] concerns the target Human TGF-β3 (PeproTech, 100-36E) (human) (UniProt P10600). The experiment can be described thus: ELISA on coated human TGF-β3, anti-human Fc-HRP, absorbance at 450 nm (bottom panel).
The target of experiment [4] is human PD-L1 on CHO-hPD-L1 cells (human) (UniProt Q9NZQ7). The experiment can be described thus: flow cytometry on CHO cells overexpressing human PD-L1, median fluorescence intensity PE-A. In general terms: Flow cytometry measures light scatter and fluorescence of single cells or particles in a stream.
For experiment [5], the target named is biotinylated human PD-L1 protein (purchased from AcroBiosystems) (human) (UniProt Q9NZQ7). Kind of experiment: blocking assay by flow cytometry: PD-L1 protein pre-incubated with the sample, binding to human PD-1 on CHO-hPD-1 cells.
Experiment [6] deals with human PD-L1 on CHO-hPD-L1 cells (human) (UniProt Q9NZQ7). Kind of experiment: flow cytometry on CHO-hPD-L1 cells, PE anti-human IgG-Fc; table under the lower panel prints no unit, concentration axis is in nM.

Sequence of Human TGF-β1 (acrobiosystems, TG1-H421) (human) (P01137 279-390 limits assumed): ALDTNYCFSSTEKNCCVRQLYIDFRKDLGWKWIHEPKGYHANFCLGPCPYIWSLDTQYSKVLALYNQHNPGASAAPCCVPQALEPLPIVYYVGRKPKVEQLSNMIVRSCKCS
Sequence of Human TGF-β3 (PeproTech, 100-36E) (human) (P10600 301-412 limits assumed): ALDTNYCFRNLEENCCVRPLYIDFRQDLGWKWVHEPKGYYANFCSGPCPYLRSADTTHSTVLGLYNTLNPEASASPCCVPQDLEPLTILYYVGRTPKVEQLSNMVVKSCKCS
Sequence of human PD-L1 on CHO-hPD-L1 cells (human) (Q9NZQ7 19-290): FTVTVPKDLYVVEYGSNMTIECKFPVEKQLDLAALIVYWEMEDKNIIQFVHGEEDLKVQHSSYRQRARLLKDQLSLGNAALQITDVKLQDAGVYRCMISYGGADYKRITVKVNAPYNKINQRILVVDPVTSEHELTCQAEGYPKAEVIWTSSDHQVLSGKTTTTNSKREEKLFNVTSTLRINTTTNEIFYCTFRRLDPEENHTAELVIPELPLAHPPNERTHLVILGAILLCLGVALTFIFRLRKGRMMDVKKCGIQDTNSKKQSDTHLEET
Sequence of biotinylated human PD-L1 protein (purchased from AcroBiosystems) (human) (Q9NZQ7 19-238 limits assumed): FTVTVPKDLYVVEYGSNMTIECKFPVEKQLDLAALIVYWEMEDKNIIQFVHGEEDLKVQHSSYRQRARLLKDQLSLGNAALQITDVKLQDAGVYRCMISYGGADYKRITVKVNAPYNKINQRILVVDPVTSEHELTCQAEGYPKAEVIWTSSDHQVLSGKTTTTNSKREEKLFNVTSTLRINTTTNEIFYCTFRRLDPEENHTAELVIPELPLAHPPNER

For M7824, the figures for the IC50 (read off the curve) in experiment [1] and in experiment [5] were 0.3 nM and 4 nM, respectively. For the same substance, the EC50 (read off the curve) (usually the midpoint of the concentration-response curve) in experiment [2] was 1 nM; in experiment [3] it was 0.6 nM; in experiment [4], 3 nM.
On to … (atezolizumab) (antibody), for which, in experiment [6], the EC50 (commonly the concentration at which the effect is half-maximal) is 2.27 nM.
As to TGF-βR2-Fc (Fc fusion), the IC50 (read off the curve) in experiment [1] was 0.4 nM. For the same substance, the values for the EC50 (read off the curve) in experiment [2] and in experiment [3] were 0.8 nM and 0.6 nM, respectively.
